Experimental data: paper PMC3738494, “A Systematic Analysis of Host Factors Reveals a Med23-Interferon-λ Regulatory Axis against Herpes Simplex Virus Type 1 Replication” (PLoS Pathogens, 2013)

Biological target: T1, Med23, myc-tagged fusion protein expressed in HEK cells (human, UniProt Q9ULK4 1-1368)
T1 sequence (looked up): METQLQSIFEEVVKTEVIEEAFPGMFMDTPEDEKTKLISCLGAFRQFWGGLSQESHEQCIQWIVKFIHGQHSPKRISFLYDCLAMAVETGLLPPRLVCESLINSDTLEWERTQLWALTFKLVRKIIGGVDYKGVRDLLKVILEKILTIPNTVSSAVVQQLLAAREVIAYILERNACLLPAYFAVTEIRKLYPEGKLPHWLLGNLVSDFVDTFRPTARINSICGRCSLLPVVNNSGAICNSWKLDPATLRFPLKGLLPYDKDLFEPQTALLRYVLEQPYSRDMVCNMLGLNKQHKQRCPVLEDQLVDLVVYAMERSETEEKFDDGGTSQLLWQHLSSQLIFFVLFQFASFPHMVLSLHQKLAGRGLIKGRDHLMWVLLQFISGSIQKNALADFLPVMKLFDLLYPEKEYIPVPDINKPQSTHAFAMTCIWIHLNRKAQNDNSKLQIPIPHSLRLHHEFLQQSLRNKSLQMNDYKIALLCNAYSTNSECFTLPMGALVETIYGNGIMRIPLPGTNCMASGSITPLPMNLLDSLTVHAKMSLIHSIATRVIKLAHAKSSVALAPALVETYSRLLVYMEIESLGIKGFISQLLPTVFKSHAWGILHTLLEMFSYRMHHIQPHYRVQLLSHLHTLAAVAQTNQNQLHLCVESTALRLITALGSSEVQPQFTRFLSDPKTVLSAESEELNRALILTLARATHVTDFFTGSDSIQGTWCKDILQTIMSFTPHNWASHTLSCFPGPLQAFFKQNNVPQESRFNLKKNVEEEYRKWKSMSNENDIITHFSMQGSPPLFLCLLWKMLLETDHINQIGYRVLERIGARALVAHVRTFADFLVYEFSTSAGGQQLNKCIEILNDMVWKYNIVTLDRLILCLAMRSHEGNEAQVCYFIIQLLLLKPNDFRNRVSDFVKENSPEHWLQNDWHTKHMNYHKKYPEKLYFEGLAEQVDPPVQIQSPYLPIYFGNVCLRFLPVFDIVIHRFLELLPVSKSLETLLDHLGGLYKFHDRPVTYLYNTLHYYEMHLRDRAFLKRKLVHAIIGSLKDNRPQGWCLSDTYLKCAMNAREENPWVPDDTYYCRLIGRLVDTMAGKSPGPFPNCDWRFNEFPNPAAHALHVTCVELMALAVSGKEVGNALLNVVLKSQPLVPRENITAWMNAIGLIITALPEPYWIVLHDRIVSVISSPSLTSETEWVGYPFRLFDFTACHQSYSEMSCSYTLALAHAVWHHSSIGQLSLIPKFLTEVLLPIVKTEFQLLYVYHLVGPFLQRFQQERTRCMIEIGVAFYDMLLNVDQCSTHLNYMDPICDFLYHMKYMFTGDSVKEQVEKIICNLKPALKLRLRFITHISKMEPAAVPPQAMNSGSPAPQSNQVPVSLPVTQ
Assay: cell-based or functional assay

B1: IRF7, HA-tagged, expressed in HEK cells (natural protein, human, UniProt Q92985 1-503, looked up)
chain: MALAPERAAPRVLFGEWLLGEISSGCYEGLQWLDEARTCFRVPWKHFARKDLSEADARIFKAWAVARGRWPPSSRGGGPPPEAETAERAGWKTNFRCALRSTRRFVMLRDNSGDPADPHKVYALSRELCWREGPGTDQTEAEAPAAVPPPQGGPPGPFLAHTHAGLQAPGPLPAPAGDKGDLLLQAVQQSCLADHLLTASWGADPVPTKAPGEGQEGLPLTGACAGGPGLPAGELYGWAVETTPSPGPQPAALTTGEAAAPESPHQAEPYLSPSPSACTAVQEPSPGALDVTIMYKGRTVLQKVVGHPSCTFLYGPPDPAVRATDPQQVAFPSPAELPDQKQLRYTEELLRHVAPGLHLELRGPQLWARRMGKCKVYWEVGGPPGSASPSTPACLLPRNCDTPIFDFRVFFQELVEFRARQRRGSPRYTIYLGFGQDLSAGRPKEKSLVLVKLEPWLCRVHLEGTQREGVSSLDSSSLSLCLSSANSLYDDIECFLMELEQPA
  IFN-λ1 promoter luciferase reporter in A549 cells, IRF7 co-expressed with Med23 (IRF7 alone ~9-fold over background): ~18 fold
  IFN-λ3 in the supernatant of A549 cells by ELISA, Med23 co-expressed with IRF7 against either alone: > 2 fold
